Source: patent publication US20200276330A1 (NANOMAB TECHNOLOGY, published 2020)
Numbering of substitutions follows the chain as printed.

B1: Nanobody No. 2 (VHH)
VHH: QVQLQESGGGSVQAGGSLRLSCAASGYTYSSDGMGWFRQTPGKEREGVAAISPTGRRTEYADSVKGRFTISRDNNKNMLSLQMNSLKPEDTGMYYCAREGSWSFSLANSAVRSWGQGTQVTVSS
notes: Expressed in E. coli WK6 and purified on a nickel column; not shown: HA and His tags (implied by anti-HA detection and nickel column)
B2: Nanobody No. 1 (VHH)
VHH: QVQLQESGGGSVQTGGSLRLSCAASTSIYSNNYMAWFSQAPGKGREGVAAVYIDDGRPYYADSVKGRFTISLDSAKNTVYLQMNRLKPEDTAMYYCAAAPGPLSHNYWYTSANYDYWGQGTQVTVSS
notes: as for B1
B3: Nanobody No. 3 (VHH)
VHH: B2 VHH with A23T, A40S, I53M, V79M, R85S, H105R
notes: as for B1

biological target: T1, PD-L1 (coated on the ELISA plate) (UniProt Q9NZQ7 19-238, limits assumed); experiment: ELISA with gradient dilution of nanobody on coated PD-L1
T1 construct: also called B7-H1; CD274
T1 sequence (Q9NZQ7 19-238 limits assumed): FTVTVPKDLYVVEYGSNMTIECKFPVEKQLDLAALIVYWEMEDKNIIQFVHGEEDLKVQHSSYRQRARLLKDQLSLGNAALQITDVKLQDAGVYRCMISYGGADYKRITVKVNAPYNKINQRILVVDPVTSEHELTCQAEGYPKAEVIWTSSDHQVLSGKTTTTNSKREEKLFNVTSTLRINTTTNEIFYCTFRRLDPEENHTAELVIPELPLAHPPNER
Experimental: (1) The PD-L1 was coated on the plate, and IgG and NaHCO₃ (100 mM, pH8.2) were used as blank controls. All were incubated overnight at 4° C.
(3) The purified nanobodies were diluted, and reacted with coated PD-L1, IgG and NaHCO₃ at room temperature for 1 hour.

First: B1
Second: B2
The Kd of the first is 4.9-fold lower: 1.62 nM for the first, 7.96 nM for the second.

Binder B3 has a Kd of 4.46 nM.

biological target: T2, PD-L1 on HCC827 cells (high PD-L1 expression) and A549 cells (low PD-L1 expression) (UniProt Q9NZQ7 19-290, limits assumed); experiment: flow cytometry on A549 cells (low PD-L1 expression), anti-HA Alexa Fluor 488
T2 construct: whole, on cells; HCC827 and A549 are known human lung cancer lines
T2 sequence (Q9NZQ7 19-290 limits assumed): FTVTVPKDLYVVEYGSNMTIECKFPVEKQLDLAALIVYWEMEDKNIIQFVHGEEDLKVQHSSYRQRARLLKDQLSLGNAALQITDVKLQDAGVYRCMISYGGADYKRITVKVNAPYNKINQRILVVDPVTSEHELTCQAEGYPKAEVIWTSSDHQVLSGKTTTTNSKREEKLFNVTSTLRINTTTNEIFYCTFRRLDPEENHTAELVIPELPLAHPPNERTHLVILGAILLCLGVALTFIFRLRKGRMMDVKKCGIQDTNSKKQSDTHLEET

Compared with B1, B2 is lower in “positive rate, A549” value: 32.6% for the first, 11.5% for the second.

For B3, the “positive rate, A549” value was 13.5%.

biological target: T2, PD-L1 on HCC827 cells (high PD-L1 …); experiment: flow cytometry on HCC827 cells (high PD-L1 expression), anti-HA Alexa Fluor 488

Compared with B1, B2 is lower in “positive rate, HCC827” value: 92.8% for the first, 88.1% for the second.

In the case of B3, the “positive rate, HCC827” value is reported as 66.5%.

biological target: T3, human PD-L1 full-length protein on transiently transfected HEK293F cells (human, UniProt Q9NZQ7 19-290); experiment: flow cytometry competition: 10 ug nanobody + 5 ug hPD-1-Fc-Biotin on HEK293F cells expressing human PD-L1, SA-PE
T3 construct: whole, on cells
T3 sequence (Q9NZQ7 19-290): as the sequence (Q9NZQ7 19-290 limits assumed) above
Experimental: (1) 1×10⁶ HEK293F cells transiently transfected to express human PD-L1 full-length protein were collected and resuspended in 0.5% BSA-PBS buffer. And 10 μg of anti-PD-L1 nanobodies were added, and a positive control, a negative control and blank group (PBS) were set up. All samples were incubated with 5 μg of hPD-1-Fc-Biotin for 20 minutes at 4° C.
(2) The cells were washed twice by PBS and incubated with SA-PE from eBioscience for 20 minutes at 4° C. Cells were washed again with PBS twice and were detected by flow cytometry.

B1 and B2 are the same in “PD-1/PD-L1 Inhibitory effect” value: 19.3% for the first, 19.3% for the second.

With B3 the “PD-1/PD-L1 Inhibitory effect” value was 19.2%.
